As a reminder, the Kd is the equilibrium constant for the complex coming apart.

Test [1] has as its target MuRF1 in fusion with the binding domain of GAL4 (pBridge, MCS I) (rat) (UniProt Q91Z63). As to the kind of experiment: two-hybrid; Matchmaker Gold yeast two-hybrid; MuRF1 alone as GAL4 binding-domain fusion, preys in pGADT7; growth of diploid clones on -LTH + Aureobasidin A + 3-AT followed over 21 days.
Test [2] has the same target. As to the kind of experiment: two-hybrid; yeast three-hybrid; pBridge::MuRF1/MHCIIa (MuRF1 GAL4 binding-domain fusion with MHCIIa residues 1–255 co-expressed from MCSII), preys in pGADT7; growth on -LTH + Aureobasidin A + 3-AT followed over 21 days.
In test [3] the target is UBE2L3 (Homo sapiens) (UniProt P68036). Briefly: SPR. The settings on record: cited from earlier work.

As for “UBE2E1 in pGADT7 (GAL4 activation domain fusion) (from UniProt P52482 1-193) (enzyme)”, the percentage of clones grown on selective media in test [1] and in test [2] was 80% each time.

In the case of MuRF1 (from UniProt Q969Q1), in test [3], the Kd is 50 nM.

Values taken from publication PMC8392593.
